{"source": "patent CN116574180A", "binders": {"B1": {"name": "8A12D2-2 (antibody, V domains shown)", "VH": "EVQLQQSGAELVKPGASVKLSCTASGFNIKDHYMHWVKQRTKQGLEWIGRIDPEDGKTNSAPEFQDKATITSDISSNTVYLQLYSLTSEDTAVYYCAYSNFGFAYWGRGTLVTVSA", "VL": "DIVMTQAAFSNPVTLGTSTSISCRSSRSLLHSNGITYLYWYLQKPGQSPQLLIYQMSSLASGVPDRFSANGSGTDFTLRISRVEAEDVGVYYCAQKLGLPYTFGGGTKLEIK"}}, "target": "生物素标记的抗原多肽 (biotin-labelled human collagen IV α1 chain peptide, synthesised by GenScript) (human)", "test": "BLI (Fortebio Octet); biotinylated peptide on SA biosensor, antibody at 100-1.56 nM", "data": [{"binder": "B1", "values": [{"measurement": "Kd", "value": 0.376, "unit": "nM"}]}]}
